For assay [1], the target named is human corticotropin-releasing factor 2a (CRF2a receptor) (human), Q13324. As to the kind of experiment: cell-based or functional assay.
Another assay deals with T1, CRF1R receptor (UniProt P34998 24-415, limits assumed).
T1 sequence (looked up): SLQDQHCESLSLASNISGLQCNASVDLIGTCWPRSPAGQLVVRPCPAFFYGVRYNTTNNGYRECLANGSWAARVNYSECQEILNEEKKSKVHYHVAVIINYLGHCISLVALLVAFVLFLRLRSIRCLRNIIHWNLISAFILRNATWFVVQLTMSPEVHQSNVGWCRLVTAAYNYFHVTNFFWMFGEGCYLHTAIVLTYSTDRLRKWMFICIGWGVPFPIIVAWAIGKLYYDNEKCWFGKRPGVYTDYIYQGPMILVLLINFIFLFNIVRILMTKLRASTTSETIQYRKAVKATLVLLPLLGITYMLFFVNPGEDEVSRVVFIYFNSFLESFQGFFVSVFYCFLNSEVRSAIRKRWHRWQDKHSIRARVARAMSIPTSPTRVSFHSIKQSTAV
As to the kind of experiment: cell-based or functional assay.

*1 amine or outer side, *2 acyl side, *3 side chain or, on linkers, in order; H or OH if unused. Side-chain parts run from the residue outwards. [ ]: non-standard residue; d: D form. The star is where a group is joined. C18 diacid = O=C(O)CCCCCCCCCCCCCCCCC(=O)*; C16 diacid = O=C(O)CCCCCCCCCCCCCCC(=O)*; γGlu = O=C(O)[C@H](CCC(=O)[*:2])N[*:1]; Nva = CCC[C@H](N)C(=O)O; Abu = CC[C@H](N)C(=O)O; Dap = NC[C@H](N)C(=O)O; AEEA = NCCOCCOCC(=O)O

human corticotropin-releasing factor 2a (CRF2a receptor) (human), Q13324, sequence (Q13324 20-411): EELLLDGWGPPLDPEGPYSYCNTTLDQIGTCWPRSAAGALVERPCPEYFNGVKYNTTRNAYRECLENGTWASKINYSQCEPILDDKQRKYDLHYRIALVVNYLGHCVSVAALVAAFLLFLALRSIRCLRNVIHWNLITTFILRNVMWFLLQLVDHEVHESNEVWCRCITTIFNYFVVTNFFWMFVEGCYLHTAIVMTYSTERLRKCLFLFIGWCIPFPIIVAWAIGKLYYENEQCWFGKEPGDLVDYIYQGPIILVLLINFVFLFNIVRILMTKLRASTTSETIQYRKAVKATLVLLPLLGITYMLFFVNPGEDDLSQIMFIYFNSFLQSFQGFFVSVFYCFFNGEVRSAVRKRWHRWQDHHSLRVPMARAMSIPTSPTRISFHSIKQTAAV

B1: SEQ ID NO 17 (peptide)
peptide: Ac-IVLSLD[dV]PIKLK([γGlu-C16 diacid])QILLKQERQKKQREQAEKNEQILEQV-NH2
SMILES: CC[C@H](C)[C@H](NC(C)=O)C(=O)N[C@H](C(=O)N[C@@H](CC(C)C)C(=O)N[C@@H](CO)C(=O)N[C@@H](CC(C)C)C(=O)N[C@@H](CC(=O)O)C(=O)N[C@@H](C(=O)N1CCC[C@H]1C(=O)N[C@H](C(=O)N[C@@H](CCCCN)C(=O)N[C@@H](CC(C)C)C(=O)N[C@@H](CCCCNC(=O)CC[C@H](NC(=O)CCCCCCCCCCCCCCC(=O)O)C(=O)O)C(=O)N[C@@H](CCC(N)=O)C(=O)N[C@H](C(=O)N[C@@H](CC(C)C)C(=O)N[C@@H](CC(C)C)C(=O)N[C@@H](CCCCN)C(=O)N[C@@H](CCC(N)=O)C(=O)N[C@@H](CCC(=O)O)C(=O)N[C@@H](CCCNC(=N)N)C(=O)N[C@@H](CCC(N)=O)C(=O)N[C@@H](CCCCN)C(=O)N[C@@H](CCCCN)C(=O)N[C@@H](CCC(N)=O)C(=O)N[C@@H](CCCNC(=N)N)C(=O)N[C@@H](CCC(=O)O)C(=O)N[C@@H](CCC(N)=O)C(=O)N[C@@H](C)C(=O)N[C@@H](CCC(=O)O)C(=O)N[C@@H](CCCCN)C(=O)N[C@@H](CC(N)=O)C(=O)N[C@@H](CCC(=O)O)C(=O)N[C@@H](CCC(N)=O)C(=O)N[C@H](C(=O)N[C@@H](CC(C)C)C(=O)N[C@@H](CCC(=O)O)C(=O)N[C@@H](CCC(N)=O)C(=O)N[C@H](C(N)=O)C(C)C)[C@@H](C)CC)[C@@H](C)CC)[C@@H](C)CC)C(C)C)C(C)C
In assay [1], B1 had an EC50 [nM] (cAMP) of 0.21 nM. The “Emax (% I)” value in the assay with CRF1R receptor came to 12%.

B2: SEQ ID NO 52 (peptide)
peptide: Ac-IVLSLD[dV]PIKLK([γGlu-C16 diacid])KILLEQEKQKKQREQAETN[Nva]QILAQV-NH2
SMILES: CCC[C@H](NC(=O)[C@H](CC(N)=O)NC(=O)[C@@H](NC(=O)[C@H](CCC(=O)O)NC(=O)[C@H](C)NC(=O)[C@H](CCC(N)=O)NC(=O)[C@H](CCC(=O)O)NC(=O)[C@H](CCCNC(=N)N)NC(=O)[C@H](CCC(N)=O)NC(=O)[C@H](CCCCN)NC(=O)[C@H](CCCCN)NC(=O)[C@H](CCC(N)=O)NC(=O)[C@H](CCCCN)NC(=O)[C@H](CCC(=O)O)NC(=O)[C@H](CCC(N)=O)NC(=O)[C@H](CCC(=O)O)NC(=O)[C@H](CC(C)C)NC(=O)[C@H](CC(C)C)NC(=O)[C@@H](NC(=O)[C@H](CCCCN)NC(=O)[C@H](CCCCNC(=O)CC[C@H](NC(=O)CCCCCCCCCCCCCCC(=O)O)C(=O)O)NC(=O)[C@H](CC(C)C)NC(=O)[C@H](CCCCN)NC(=O)[C@@H](NC(=O)[C@@H]1CCCN1C(=O)[C@H](NC(=O)[C@H](CC(=O)O)NC(=O)[C@H](CC(C)C)NC(=O)[C@H](CO)NC(=O)[C@H](CC(C)C)NC(=O)[C@@H](NC(=O)[C@@H](NC(C)=O)[C@@H](C)CC)C(C)C)C(C)C)[C@@H](C)CC)[C@@H](C)CC)[C@@H](C)O)C(=O)N[C@@H](CCC(N)=O)C(=O)N[C@H](C(=O)N[C@@H](CC(C)C)C(=O)N[C@@H](C)C(=O)N[C@@H](CCC(N)=O)C(=O)N[C@H](C(N)=O)C(C)C)[C@@H](C)CC
B2: in assay [1], the EC50 [nM] (cAMP) amounted to 0.17 nM. The “Emax (% I)” value in the assay with CRF1R receptor was 7%.

B3: SEQ ID NO 55 (peptide)
peptide: Ac-IVLSLD[dV]PIKLK([γGlu-C16 diacid])KILLEQEKQKKQREQAETN[Dap]QILAQV-NH2
SMILES: CC[C@H](C)[C@H](NC(C)=O)C(=O)N[C@H](C(=O)N[C@@H](CC(C)C)C(=O)N[C@@H](CO)C(=O)N[C@@H](CC(C)C)C(=O)N[C@@H](CC(=O)O)C(=O)N[C@@H](C(=O)N1CCC[C@H]1C(=O)N[C@H](C(=O)N[C@@H](CCCCN)C(=O)N[C@@H](CC(C)C)C(=O)N[C@@H](CCCCNC(=O)CC[C@H](NC(=O)CCCCCCCCCCCCCCC(=O)O)C(=O)O)C(=O)N[C@@H](CCCCN)C(=O)N[C@H](C(=O)N[C@@H](CC(C)C)C(=O)N[C@@H](CC(C)C)C(=O)N[C@@H](CCC(=O)O)C(=O)N[C@@H](CCC(N)=O)C(=O)N[C@@H](CCC(=O)O)C(=O)N[C@@H](CCCCN)C(=O)N[C@@H](CCC(N)=O)C(=O)N[C@@H](CCCCN)C(=O)N[C@@H](CCCCN)C(=O)N[C@@H](CCC(N)=O)C(=O)N[C@@H](CCCNC(=N)N)C(=O)N[C@@H](CCC(=O)O)C(=O)N[C@@H](CCC(N)=O)C(=O)N[C@@H](C)C(=O)N[C@@H](CCC(=O)O)C(=O)N[C@H](C(=O)N[C@@H](CC(N)=O)C(=O)N[C@@H](CN)C(=O)N[C@@H](CCC(N)=O)C(=O)N[C@H](C(=O)N[C@@H](CC(C)C)C(=O)N[C@@H](C)C(=O)N[C@@H](CCC(N)=O)C(=O)N[C@H](C(N)=O)C(C)C)[C@@H](C)CC)[C@@H](C)O)[C@@H](C)CC)[C@@H](C)CC)C(C)C)C(C)C
As for B3, the EC50 [nM] (cAMP) in assay [1] was determined as 0.42 nM. Besides, the “Emax (% I)” value in the assay with CRF1R receptor came out at 5%.

B4: SEQ ID NO 108 (peptide)
peptide: Ac-IVLSLD[dV]PIKLK([AEEA-AEEA-γGlu-C18 diacid])KILLEQEKQKKQREQAETNEQILAQV-NH2
SMILES: CC[C@H](C)[C@H](NC(C)=O)C(=O)N[C@H](C(=O)N[C@@H](CC(C)C)C(=O)N[C@@H](CO)C(=O)N[C@@H](CC(C)C)C(=O)N[C@@H](CC(=O)O)C(=O)N[C@@H](C(=O)N1CCC[C@H]1C(=O)N[C@H](C(=O)N[C@@H](CCCCN)C(=O)N[C@@H](CC(C)C)C(=O)N[C@@H](CCCCNC(=O)COCCOCCNC(=O)COCCOCCNC(=O)CC[C@H](NC(=O)CCCCCCCCCCCCCCCCC(=O)O)C(=O)O)C(=O)N[C@@H](CCCCN)C(=O)N[C@H](C(=O)N[C@@H](CC(C)C)C(=O)N[C@@H](CC(C)C)C(=O)N[C@@H](CCC(=O)O)C(=O)N[C@@H](CCC(N)=O)C(=O)N[C@@H](CCC(=O)O)C(=O)N[C@@H](CCCCN)C(=O)N[C@@H](CCC(N)=O)C(=O)N[C@@H](CCCCN)C(=O)N[C@@H](CCCCN)C(=O)N[C@@H](CCC(N)=O)C(=O)N[C@@H](CCCNC(=N)N)C(=O)N[C@@H](CCC(=O)O)C(=O)N[C@@H](CCC(N)=O)C(=O)N[C@@H](C)C(=O)N[C@@H](CCC(=O)O)C(=O)N[C@H](C(=O)N[C@@H](CC(N)=O)C(=O)N[C@@H](CCC(=O)O)C(=O)N[C@@H](CCC(N)=O)C(=O)N[C@H](C(=O)N[C@@H](CC(C)C)C(=O)N[C@@H](C)C(=O)N[C@@H](CCC(N)=O)C(=O)N[C@H](C(N)=O)C(C)C)[C@@H](C)CC)[C@@H](C)O)[C@@H](C)CC)[C@@H](C)CC)C(C)C)C(C)C
As for B4, the EC50 [nM] (cAMP) in assay [1] came out at 1.14 nM. The “Emax (% I)” value with CRF1R receptor came out at 4%.

B5: SEQ ID NO 51 (peptide)
peptide: Ac-IVLSLD[dV]PIKLK([γGlu-C16 diacid])KILLEQEKQKKQREQAETN[Abu]QILAQV-NH2
SMILES: CC[C@H](NC(=O)[C@H](CC(N)=O)NC(=O)[C@@H](NC(=O)[C@H](CCC(=O)O)NC(=O)[C@H](C)NC(=O)[C@H](CCC(N)=O)NC(=O)[C@H](CCC(=O)O)NC(=O)[C@H](CCCNC(=N)N)NC(=O)[C@H](CCC(N)=O)NC(=O)[C@H](CCCCN)NC(=O)[C@H](CCCCN)NC(=O)[C@H](CCC(N)=O)NC(=O)[C@H](CCCCN)NC(=O)[C@H](CCC(=O)O)NC(=O)[C@H](CCC(N)=O)NC(=O)[C@H](CCC(=O)O)NC(=O)[C@H](CC(C)C)NC(=O)[C@H](CC(C)C)NC(=O)[C@@H](NC(=O)[C@H](CCCCN)NC(=O)[C@H](CCCCNC(=O)CC[C@H](NC(=O)CCCCCCCCCCCCCCC(=O)O)C(=O)O)NC(=O)[C@H](CC(C)C)NC(=O)[C@H](CCCCN)NC(=O)[C@@H](NC(=O)[C@@H]1CCCN1C(=O)[C@H](NC(=O)[C@H](CC(=O)O)NC(=O)[C@H](CC(C)C)NC(=O)[C@H](CO)NC(=O)[C@H](CC(C)C)NC(=O)[C@@H](NC(=O)[C@@H](NC(C)=O)[C@@H](C)CC)C(C)C)C(C)C)[C@@H](C)CC)[C@@H](C)CC)[C@@H](C)O)C(=O)N[C@@H](CCC(N)=O)C(=O)N[C@H](C(=O)N[C@@H](CC(C)C)C(=O)N[C@@H](C)C(=O)N[C@@H](CCC(N)=O)C(=O)N[C@H](C(N)=O)C(C)C)[C@@H](C)CC
As to B5, the EC50 [nM] (cAMP) in assay [1] came out at 0.12 nM. In addition, in the assay with CRF1R receptor, the “Emax (% I)” value stood at 9%.

B6: SEQ ID NO 107 (peptide)
peptide: Ac-IVLSLD[dV]PIKLK([AEEA-AEEA-γGlu-C18 diacid])KILLEQEKQKKQREQAETN[Dap]QILAQV-NH2
SMILES: CC[C@H](C)[C@H](NC(C)=O)C(=O)N[C@H](C(=O)N[C@@H](CC(C)C)C(=O)N[C@@H](CO)C(=O)N[C@@H](CC(C)C)C(=O)N[C@@H](CC(=O)O)C(=O)N[C@@H](C(=O)N1CCC[C@H]1C(=O)N[C@H](C(=O)N[C@@H](CCCCN)C(=O)N[C@@H](CC(C)C)C(=O)N[C@@H](CCCCNC(=O)COCCOCCNC(=O)COCCOCCNC(=O)CC[C@H](NC(=O)CCCCCCCCCCCCCCCCC(=O)O)C(=O)O)C(=O)N[C@@H](CCCCN)C(=O)N[C@H](C(=O)N[C@@H](CC(C)C)C(=O)N[C@@H](CC(C)C)C(=O)N[C@@H](CCC(=O)O)C(=O)N[C@@H](CCC(N)=O)C(=O)N[C@@H](CCC(=O)O)C(=O)N[C@@H](CCCCN)C(=O)N[C@@H](CCC(N)=O)C(=O)N[C@@H](CCCCN)C(=O)N[C@@H](CCCCN)C(=O)N[C@@H](CCC(N)=O)C(=O)N[C@@H](CCCNC(=N)N)C(=O)N[C@@H](CCC(=O)O)C(=O)N[C@@H](CCC(N)=O)C(=O)N[C@@H](C)C(=O)N[C@@H](CCC(=O)O)C(=O)N[C@H](C(=O)N[C@@H](CC(N)=O)C(=O)N[C@@H](CN)C(=O)N[C@@H](CCC(N)=O)C(=O)N[C@H](C(=O)N[C@@H](CC(C)C)C(=O)N[C@@H](C)C(=O)N[C@@H](CCC(N)=O)C(=O)N[C@H](C(N)=O)C(C)C)[C@@H](C)CC)[C@@H](C)O)[C@@H](C)CC)[C@@H](C)CC)C(C)C)C(C)C
B6 registered an EC50 [nM] (cAMP) in assay [1] of 1.43 nM. Further, the “Emax (% I)” value with CRF1R receptor stood at 0%.

The record behind these values is patent publication US20260001928A1 (CORTERIA PHARMACEUTICALS, priority 2022, published 2026).
